Where “and” joins values, the source holds several entries; their conditions need not be identical. Equal entries are not always repeated.
Molecular target: T1, CRF2-4/IL-22RA heterodimeric receptor on BaF3/CRF2-4/IL-22RA cells (human, UniProt Q08334 20-325, limits assumed)
T1 sequence 1: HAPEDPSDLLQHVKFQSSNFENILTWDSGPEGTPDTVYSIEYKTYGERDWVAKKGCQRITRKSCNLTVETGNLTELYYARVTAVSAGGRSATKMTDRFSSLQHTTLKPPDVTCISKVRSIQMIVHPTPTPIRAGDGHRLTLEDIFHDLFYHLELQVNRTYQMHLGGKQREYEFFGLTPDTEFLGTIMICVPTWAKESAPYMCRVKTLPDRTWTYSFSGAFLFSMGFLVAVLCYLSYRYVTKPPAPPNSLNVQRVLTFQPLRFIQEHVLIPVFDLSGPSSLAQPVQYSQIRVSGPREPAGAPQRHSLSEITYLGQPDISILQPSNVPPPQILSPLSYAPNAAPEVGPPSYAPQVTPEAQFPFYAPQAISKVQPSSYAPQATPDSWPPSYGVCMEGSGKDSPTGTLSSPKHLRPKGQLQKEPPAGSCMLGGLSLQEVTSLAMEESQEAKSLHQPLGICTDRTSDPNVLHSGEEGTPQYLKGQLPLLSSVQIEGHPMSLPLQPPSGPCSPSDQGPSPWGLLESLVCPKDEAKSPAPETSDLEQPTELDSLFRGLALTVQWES
T1 sequence 2: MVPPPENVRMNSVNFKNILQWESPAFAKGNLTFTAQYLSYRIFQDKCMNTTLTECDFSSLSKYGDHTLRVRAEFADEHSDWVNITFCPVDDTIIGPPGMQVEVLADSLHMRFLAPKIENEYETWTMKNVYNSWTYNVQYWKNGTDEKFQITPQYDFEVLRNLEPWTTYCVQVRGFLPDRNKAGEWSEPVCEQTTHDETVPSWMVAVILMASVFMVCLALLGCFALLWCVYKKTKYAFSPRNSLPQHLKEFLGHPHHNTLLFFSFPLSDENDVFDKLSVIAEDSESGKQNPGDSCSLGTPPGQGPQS
Assay: cell-based or functional assay

B1: IL-22-CEE (human IL-22 polypeptide with C-terminal GluGlu (EE) tag, purified from BHK 570 cells) (ligand)
chain: LLLALLVQGGAAAPISSHCRLDKSNFQQPYITNRTFMLAKEASLADNNTDVRLIGEKLFHGVSMSERCYLMKQVLNFTLEEVLFPQSDRFQPYMQEVVPFLARLSNRLSTCHIEGDDLHIQRNVQKLKDTVKKLGESGEIKAIGELEYMPME
proliferation of BaF3/CRF2-4/IL-22RA cells (Alamar Blue): ~15 fold over background and 2 fold induction
